Blank lines part the entries; values can stand above or below the compound they belong to. Where a SMILES comes first, the peptide text is derived from it. Where no end group is shown, it is not given here. [ ]: non-standard residue; d: D form.
Key:
[1] = biological target: T1, FOXP3/FOXP3 homodimerization (Homo sapiens, UniProt Q9BZS1); assay: FOXP3/FOXP3 homodimerization inhibition (Alphascreen); assay type: biochemical; conditions: for Dimerization inhibition % inhibition (100 μM): peptide 100 μM
T1 construct: made in house; host or cells: E. coli BL21 (DE3)
T1 sequence (Q9BZS1 1-431): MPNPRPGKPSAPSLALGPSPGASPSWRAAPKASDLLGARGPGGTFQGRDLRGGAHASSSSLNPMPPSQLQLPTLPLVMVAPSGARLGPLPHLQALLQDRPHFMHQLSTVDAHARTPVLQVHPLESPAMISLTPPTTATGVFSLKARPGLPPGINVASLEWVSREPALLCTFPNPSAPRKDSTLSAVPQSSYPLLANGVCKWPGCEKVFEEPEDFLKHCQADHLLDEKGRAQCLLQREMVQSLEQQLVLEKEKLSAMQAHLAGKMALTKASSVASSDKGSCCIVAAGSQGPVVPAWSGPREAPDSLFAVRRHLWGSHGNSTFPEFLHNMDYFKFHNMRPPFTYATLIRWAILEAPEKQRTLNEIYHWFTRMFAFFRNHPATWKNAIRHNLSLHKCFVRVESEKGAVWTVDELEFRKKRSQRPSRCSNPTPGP
Source text: (§1) Plasmid pET20b FOXP3-His was generated to produce the human FOXP3 tagged with 6 histidines at the C terminus of the protein. Briefly, plasmid pDEST15-FOXP3 (provided by Dr. Casal, Madrid, Spain) was used as template to amplify FOXP3 by PCR using the primers Upper FOXP3 Ndel catatgcccaaccccaggc (SEQ ID NO: 55) and Lower FOXP3 […] (SEQ ID NO: 56). The resulting fragment was subcloned in pET20b at Ndel and NotI sites. pET45b His-Runx1 was obtained by PCR of activated human CD4 T cells obtained from healthy volunteers (after the signature of an informed consent) using the primers Upper Runx1 atgcgtatccccgtagatg (SEQ ID NO: 57) and Lower Runx1 […] (SEQ ID NO: 58) and the fragment was cloned in pcDNA3.1. Then, pET45b and pcDNA3.1-Runx1 were digested with BamHI and NotI and ligated to obtain pET45b-Runx1. Plasmids were used to transform BL21 cells (DE3; Novagen, Schwalbach, Germany) for the expression of the recombinant protein. The transformed BL21 cells were grown in LB medium at 37° C. (1 liter of final culture medium) (with ampicilin 0.1 mg/ml). Once the OD of the culture was between 0.5 and 1.0, IPTG (0.4 mM, final concentration) was added. Bacteria were then cultured overnight in agitation and centrifuged for 10 min at 8000 rpm. Cell pellet was then resuspended in 4 ml Tris-HCl 0.1 M and frozen at −80° C. Cell pellet was then thawed and incubated with lisozyme (25 KU) and a protease inhibitor cocktail for 15 min at 30° C. before cell lysis induced with a French-press. The resultant pool was then centrifuged during 20 min at 11.000 rpm). The recombinant protein was purified from the soluble fraction of French-press cell extracts by affinity chromatography (Histrap, Pharmacia) following manufacturer's instructions and using an FPLC platform (AKTA, Pharmacia). Plasmid pDEST15-FOXP3 encoding the fusion protein GST-FOXP3 (GST fused to the isoform A from human FOXP3 gene), was transformed into BL21 cells for the expression of the recombinant protein. GST-FOXP3 protein was purified from the soluble fraction of cell extracts obtained, as described above, by affinity chromatography (GSTrap; Amersham, Piscataway, N.J.) using a fast protein liquid chromatography platform (AKTA; Amersham) following manufacturer's instructions. The eluted proteins were desalted using Hitrap desalting columns (Pharmacia) and analyzed by SDS-PAGE using Coomassie blue (Bio-Safe Coomassie reagent; Bio-Rad, Hercules, Calif.) and by Western blot.
(§2) It has been described that dimerization of FOXP3 is required for its function as a transcriptional regulator. Moreover, interaction between FOXP3 and the transcription factor Runx1, is crucially required for normal hematopoiesis including thymic T-cell development, but also for Treg suppressor activity (Reviewed in Lozano et al, Front Oncol. 2013, 3:294). Both activities are mediated by the intermediate region of Foxp3, which is the area of interaction between P60 and Foxp3. Thus, we studied the effect of P60 and their mutants on the FOXP3/Runx1 heterodimerization, as well as FOXP3/FOXP3 homodimerization by Alphascreen technology according to the manufacturer's instructions (Perkin Elmer, Benelux). AlphaScreen™ is a bead-based technology that is designed to measure the proximity of donor and acceptor beads conjugated to biomolecules of interest.
To measure FOXP3/FOXP3 homodimerization, recombinant Foxp3 was expressed with a Histine tag as disclosed in section (1) above, and captured by Nickel chelate Acceptor beads (Cat. AL108 Perkin Elmer) following manufacturer's instructions. The other version of recombinant FOXP3, expressing a GST tag (prepared as disclosed in section (1) above), was captured by Glutathione Donor beads (Perkin Elmer Cat. 6765300), following manufacturer's instructions. When the two proteins interacted together, the Donor and Acceptor beads come into proximity. Excitation of the Donor beads results in emission of light from the Acceptor beads. […]

human FOXP3 (FOXP3-6His) = biological target: T2, human FOXP3 (FOXP3-6His) (Homo sapiens, UniProt Q9BZS1); assay: Peptide binding to FOXP3 by surface plasmon resonance (SPR); conditions: peptides 1-20 μM; ratio to p60 (SEQ ID NO: 1)
T2 construct: 6xHis (C); made in house; host or cells: E. coli BL21 (DE3)
T2 sequence (Q9BZS1 1-431): T1 sequence (Q9BZS1 1-431)
Source text: as §1
Screening of peptide binding to FOXP3 was performed by surface plasmon resonance (SPR) using ProteOn XPR36 (Bio-Rad, Hercules Calif., USA) optical biosensor. Recombinant protein FOXP3-6His was produced and purified from E. coli as disclosed in previous section and was immobilized covalently onto a GLM sensor chip (176-5012, Bio-Rad) using sulfo-NHS and EDC (Bio-Rad) coupling reagents and the manufacturer's instructions. After protein immobilization, chip surface was treated with ethanolamine to deactivate the excess of reactive esters.
Individual solutions of the peptides to be tested (1-20 μM) were injected by triplicate in running buffer (Phosphate buffered saline, 0.005% (v/v) Tween 20, pH 7.4) at a flow of 30 μl/min. The interspot signal (obtained in the chip surface not immobilized with protein) was used as reference. The results are summarized in Table 6 below as the ratio Peptide of the invention/p60.

[2] = biological target: T3, FOXP3/Runx1 heterodimerization (Homo sapiens, UniProt Q9BZS1); assay: FOXP3/Runx1 heterodimerization inhibition (Alphascreen); assay type: biochemical; conditions: for Foxp3-Runx1 Inhibition % inhibition (100 μM): peptide 100 μM
T3 construct: made in house; host or cells: E. coli BL21 (DE3)
T3 sequence (Q9BZS1 1-431): T1 sequence (Q9BZS1 1-431)
Source text: as §1, §2
To measure Foxp3-Runx1 interactions, Foxp3-GST and […] proteins were used.
Recombinant Runx1 expressed in E. Coli with a hexa-histidine tag (obtained as disclosed in section (1) above) was captured by nickel chelate acceptor beads following manufacturer's instructions, whereas the recombinant FOXP3 expressed with a GST tag was captured by glutathione donor beads (Perkin Elmer) following manufacturer's instructions. His-tagged Runx1 (46 nM final concentration) was incubated with 100 nM GST-FOXP3 and the peptides to be tested (added at different concentrations from 1 to 100 μM) for 1 h at room temperature. […]

[3] = system: murine Treg (CD25+ T cells); assay: In vitro Treg suppression assay ([3H]-thymidine, anti-CD3); assay type: cell-based, BALB/c mice
Protocol: Spleen was harvested from BALB/c mice (Harlan Laboratories) and homogenized with a 1-ml syringe through a 100-μm cell strainer into a 50-ml conical tube and rinsed two times with PBS (Calcium free) to recover all cells. Cell homogenate was centrifuged at 300×g for 10 min and resuspended homogenate in 1 ml ACK Lysis buffer solution per spleen. Gently swirled for 2 min and then the reaction was quenched by adding 12 ml of PBS.
Cells were centrifuged at 300×g for 10 min and purification of CD25− and CD25+ cells was carried out using magnetic beads (Miltenyi, CD25 microbead kit MOUSE, Ref 130-091-072)), following manufacturer's instructions. After labelling the cells, they were purified using Automacs-Pro device following manufacturer's instructions. Negative fraction corresponded to CD25− cells, which was used as effector Tconv cells. Positive fraction corresponded to CD25+ T cells that was used as Treg cells. Flow cytometry using anti-CD25-APC labeled and anti-CD4-FITC labelled antibodies was used to confirm the purity of isolated cells. Foxp3 expression was analyzed using the anti-Foxp3 staining antibody labelled with APC according to manufacturer's instructions (eBioscience). Purified cells were washed, resuspended in culture medium and diluted in T-cell culture medium (RPMI 1640, supplemented with 10% Fetal bovine serum and antibiotics) at a concentration of 2×10^5/ml (for Tregs) and 2×10^6/ml (for Tconv), for the assay (See below)
The first in vitro assays to measure regulatory T-cell (Treg) function were described by two groups over a decade ago. […] With this knowledge, it was shown that CD4+CD25+ T cells could potently suppress the proliferation of activated CD4+CD25− and CD8+ T cells when the populations were cocultured in vitro. The following protocol describes a basic type of in vitro Treg suppression assay where Treg function is measured in the absence of antigen-presenting cells (APCs). In this protocol, activation is mediated by anti-CD3 antibodies and includes only two cell types, the target Tconv and Tregs. In this protocol, the experiment is setup in a 96-well round-bottom plate in a total volume of 200 μl. All reagents are prepared at four times their desired final concentration and added to assay in 50 μl such that the total volume is 200 μl, thus obtaining the desired final concentration of reactives. Purified Tregs and Tconv prepared as described above were diluted and adjusted in T-cell culture medium to 2×10^5/ml and 2×10^6/ml, respectively. In round-bottom 96-well plate, Tregs and Tconv were added in 50 μl of culture media each (RPMI 1640, supplemented with 10% Fetal bovine serum, and antibiotics). Anti-CD3 antibody was added in 50 μl (final concentration will be 2.5 μg/ml) as a stimulus to induce T cell proliferation. 50 μL of each one of the peptides to be tested were added in the corresponding wells at a concentration of 100 μM and those which provided the best results were tested again at lower concentrations to determine the IC50 value. The final volume was 200 μl in all wells. Tconv alone, Tconv plus anti-CD3, Tconv+anti-CD3+ Treg or Tconv+anti-CD3+Treg+peptides were tested by quadruplicate. Tconv plus anti-CD3 with no Treg was used to determine maximum proliferation of Tconv whereas Tconv+anti-CD3+ Treg was used to determine Treg inhibition. Plates were incubated at 37° C., 5% CO2 for 72 h and then pulsed with 0.1 μCi [^3H]-thymidine (in 25 μl of culture medium per well). After 8 h of incubation, cell cultures were harvested with a cell harvester (Perkin Elmer) and using unifilter plates. Plates were then dried at 50° C., and scintillation reagent (25 μl)(Microscint, Perkin Elmer) was added to each well. Counts per minute (cpm) were determined with a direct beta counter (TopCount, Perkin Elmer).
The results of in vitro Treg suppression assays are most commonly reported as cpm when [^3H]-thymidine is incorporated into proliferating cells. […]

CT26 tumor cells = assay: Anti-tumor vaccination experiment (AH1 in IFA), CT26 challenge; assay type: in vivo, BALB/c; conditions: 10 nanomol/mice i.p. daily during 10 days after AH1/IFA; day 30 after injection of CT26
Protocol: For anti-tumor vaccination experiments, BALB/c animals immunized with 50 nanomol/mice of peptide AH1 emulsified in incomplete Freund adjuvant (IFA) (Casares et al., 2010, supra), were treated intraperitoneally with 10 nanomol/mice of the indicated Treg inhibitory peptide SEQ ID NO: 51 of the invention or with saline daily during 10 days. At day 10, mice were injected s.c. with 10^6 CT26 tumor cells. Tumor size was monitored twice a week with a calliper and it was expressed according to the formula V=(length×width2)/2. Mice were sacrificed when tumor size reached a volume greater than 4 cm^3.

Dimerization inhibition % inhibition (20 μM) ([1]; peptide 20 μM): 80 (20 μM) %
Binding to Foxp3 Ratio binding Peptide/p60 (fold change) (human FOXP3 (FOXP3-6His)): 2.4 fold change
Compound: 2 (RDFQSFRKMWPFFAM-NH2; not fully specified (N-terminus)) [compound 2]

Binding to Foxp3 Ratio binding Peptide/p60 (fold change) (human FOXP3 (FOXP3-6His)): 1.4 fold change
Compound: 9 (RWFQSFRKMWPFFAM) [compound 9]
Treg inhibition - % inhibition (100 μM) ([3]; peptide 100 μM): 210.0%

Binding to Foxp3 Ratio binding Peptide/p60 (fold change) (human FOXP3 (FOXP3-6His)): 8.0 fold change
IC50 [3]: 3000 nM
Compound: Ac-GRAFQAFRKMWAFFAM-NH2 (C-terminus assumed) [compound 45]

Further lines, the compound ahead of its results:

Compound: 5 (RAFQSFRKMWPFFAM) [compound 5]
Dimerization inhibition % inhibition (100 μM) [1]: 74.3%
Foxp3-Runx1 Inhibition % inhibition (100 μM) [2]: 76.0%
Binding to Foxp3 Ratio binding Peptide/p60 (fold change) (human FOXP3 (FOXP3-6His)): 4.1 fold change

Compound: 19 (RDFQAFRKMWPFFAM) [compound 19]
Dimerization inhibition % inhibition (100 μM) [1]: 89.0%
Foxp3-Runx1 Inhibition % inhibition (100 μM) [2]: 74.7%
Binding to Foxp3 Ratio binding Peptide/p60 (fold change) (human FOXP3 (FOXP3-6His)): 1.1 fold change

Compound: 30 (RDFQSFRKMWAFFAM) [compound 30]
Dimerization inhibition % inhibition (100 μM) [1]: 81.3%
Foxp3-Runx1 Inhibition % inhibition (100 μM) [2]: 73.9%
Binding to Foxp3 Ratio binding Peptide/p60 (fold change) (human FOXP3 (FOXP3-6His)): 1.1 fold change

Compound: CSCC[C@H](NC(=O)[C@H](C)NC(=O)[C@H](Cc1ccccc1)NC(=O)[C@H](Cc1ccccc1)NC(=O)[C@@H]1CCCN1C(=O)[C@H](Cc1c[nH]c2ccccc12)NC(=O)[C@H](CCSC)NC(=O)[C@H](CCCCN)NC(=O)[C@H](CCCNC(=N)N)NC(=O)[C@H](Cc1ccccc1)NC(=O)[C@H](CO)NC(=O)[C@H](CCC(N)=O)NC(=O)[C@H](Cc1ccccc1)NC(=O)[C@@H](C)NC(=O)[C@H](CCCNC(=N)N)NC(=O)CNC(C)=O)C(N)=O [compound 14] (Ac-GR[dA]FQSFRKMWPFFAM-NH2; C-terminus assumed)
inhibition at 20 µM ([1]; read-out: Dimerization inhibition % inhibition (20 μM)): 90%
inhibition at 2.5 µM ([2]; read-out: Foxp3-Runx1 Inhibition % inhibition (2.5 μM)): 80%
Binding to Foxp3 Ratio binding Peptide/p60 (fold change) (human FOXP3 (FOXP3-6His)): 3.6 fold change

Compound: RAFQAFRKMWPFFAM (cyclo(R[dA]FQAFRKMWPFFAM); also: R1 and R2 form a birradical linker which is -C(=O)-) [SEQ ID NO: 51, head-to-tail cyclic peptide]
effect on growth of CT26 colon cancer tumor (CT26 tumor cells): prevents the growth of tumor
